In article doi:10.1101/419051 (bioRxiv, 2018):

B1: α2 subunit of the CP (natural protein)
chain: MAERGYSFSLTTFSPSGKLVQIEYALAAVAGGAPSVGIKAANGVVLATEKKQKSILYDERSVHKVEPITKHIGLVYSGMGPDYRVLVHRARKLAQQYYLVYQEPIPTAQLVQRVASVMQEYTQSGGVRPFGVSLLICGWNEGRPYLFQSDPSGAYFAWKATAMGKNYVNGKTFLEKRYNEDLELEDAIHTAILTLKESFEGQMTEDNIEVGICNEAGFRRLTPTEVKDYLAAIA
B2: α3 subunit of the CP (natural protein)
chain: MSRRYDSRTTIFSPEGRLYQVEYAMEAIGHAGTCLGILANDGVLLAAERRNIHKLLDEVFFSEKIYKLNEDMACSVAGITSDANVLTNELRLIAQRYLLQYQEPIPCEQLVTALCDIKQAYTQFGGKRPFGVSLLYIGWDKHYGFQLYQSDPSGNYGGWKATCIGNNSAAAVSMLKQDYKEGEMTLKSALALAIKVLNKTMDVSKLSAEKVEIATLTRENGKTVIRVLKQKEVEQLIKKHEEEEAKAEREKKEKEQKEKDK

Target: Rpt6 (human, UniProt P62195 1-406)
Assay: cryo-EM structure

Row | Binder | binding result
1 | B1 | binds
2 | B2 | binds
